Laboratory results: paper PMC3257521 (Biochemistry, 2011)

Assays:
[1] = biological target: Pnc1 (Saccharomyces cerevisiae, UniProt P53184); assay type: biochemical, S. cerevisiae
[2] = Literature hydrolysis in basic solution; assay type: physicochemical; conditions: 25 °C in 0.1 N NaOH
[3] = 25 °C in 0.1 N NaOH; cited from earlier work
[4] = tested on: Pnc1 WT or mutant; test: Steady-state kinetic parameters of Pnc1 mutants, enzyme-coupled assay; assay type: biochemical, S. cerevisiae; conditions: substrate nicotinamide; for kcat: pH 7.5
[5] = biological target: Pnc1 WT or mutant (Saccharomyces cerevisiae, UniProt P53184, C167A); test: as above; assay type: biochemical, S. cerevisiae; conditions: substrate nicotinamide
[6] = biological target: Pnc1 WT or mutant (Saccharomyces cerevisiae, UniProt P53184, K122R); test: 13C kinetic isotope effect of Pnc1 mutants; assay type: biochemical, S. cerevisiae; conditions: substrate nicotinamide
[7] = tested on: Pnc1 WT or mutant; test: 13C kinetic isotope effect of Pnc1 mutants; assay type: biochemical, S. cerevisiae; conditions: substrate nicotinamide, pH 7.5
[8] = tested on: Pnc1 WT or mutant; test: 15N kinetic isotope effect of Pnc1 mutants; assay type: biochemical, S. cerevisiae; conditions: substrate nicotinamide, pH 7.5

Sequence of Pnc1 (P53184 whole entry): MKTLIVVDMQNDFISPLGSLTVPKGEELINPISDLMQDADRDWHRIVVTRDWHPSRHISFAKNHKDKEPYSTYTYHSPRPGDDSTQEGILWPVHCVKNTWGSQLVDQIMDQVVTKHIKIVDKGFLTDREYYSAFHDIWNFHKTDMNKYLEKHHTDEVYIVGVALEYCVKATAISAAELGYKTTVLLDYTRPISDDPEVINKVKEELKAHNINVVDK

Molecule	fold decreased kcat/Km compared to nicotinamide [1] [fold]	fold lower kcat compared to nicotinamide [1] [fold]	fold slower hydrolysis rate compared to nicotinamide [2] [fold]	pseudo-first-order rate of hydrolysis in basic solutions [3] [h⁻¹]	kcat [4] [s⁻¹]	nicotinamidase activity [5]	13C effect higher than wild-type enzyme [6]	13C KIE [7]	fold lower kcat compared to Pnc1 WT [4] [fold]	15N KIE [8]
NC(=O)c1ccccc1 [benzamide]	200	78	7	0.00408						
C167A (protein, UniProt P53184 1-216, looked up, variant C167A) Nicotinamidase: MKTLIVVDMQNDFISPLGSLTVPKGEELINPISDLMQDADRDWHRIVVTRDWHPSRHISFAKNHKDKEPYSTYTYHSPRPGDDSTQEGILWPVHCVKNTWGSQLVDQIMDQVVTKHIKIVDKGFLTDREYYSAFHDIWNFHKTDMNKYLEKHHTDEVYIVGVALEYAVKATAISAAELGYKTTVLLDYTRPISDDPEVINKVKEELKAHNINVVDK					< 0.0005	lost all detectable nicotinamidase activity				
K122R (protein, UniProt P53184 1-216, looked up, variant K122R) Nicotinamidase: MKTLIVVDMQNDFISPLGSLTVPKGEELINPISDLMQDADRDWHRIVVTRDWHPSRHISFAKNHKDKEPYSTYTYHSPRPGDDSTQEGILWPVHCVKNTWGSQLVDQIMDQVVTKHIKIVDRGFLTDREYYSAFHDIWNFHKTDMNKYLEKHHTDEVYIVGVALEYCVKATAISAAELGYKTTVLLDYTRPISDDPEVINKVKEELKAHNINVVDK					0.0009 ± 0.0002		~ 0.4%	1.0172 ± 0.0001	767	1.0127 ± 0.0003
